Assay in all cases: FACS
On the technique in general: In flow cytometry, cells or beads pass a laser one at a time.

The target of assay [1] is Frankfurt 1 RBD.
Assay [2] concerns the target A021 RBD.
Assay [3] deals with WIV1 RBD.
Assay [4] concerns the target Rs4231 RBD.
The target in assay [5] is LYRa11 RBD.
In assay [6] the target is CS24 RBD.
The target of assay [7] is SHC014 RBD.
Assay [8] concerns the target RaTG13 RBD.
In assay [9] the target is Civet 007-2004 RBD.
For assay [10], the target named is GD-Pangolin RBD.

For S309, the Kd (commonly the free concentration of one partner at which half of the binding sites on the other are occupied at equilibrium, for simple one-to-one binding) in assay [1] was determined as 3.5 nM; in [2], 4.14 nM; in [3], 3.89 nM; in assay [4] it was 3.77 nM; in assay [5], 4.53 nM; in assay [6] it was 2.52 nM. For the same substance, the Kd in [7] came out at 3.78 nM; in [8], 2.88 nM; in assay [9], 3.75 nM; in assay [10], 4.53 nM.
In assay [10], REGN10933 had a Kd of 0.64 nM. This lies in the sub-nanomolar range.
On the same count and under the same terms, the figure for LY-CoV555 is 1.3 nM.
Regarding CB6/LY-CoV16, the results for the Kd in [8] and in assay [10] were 3.6 nM and 2.15 nM, respectively.
Substance REGN10987 registered a Kd in [10] of 1.44 nM.

These data come from paper PMC7963221.
